From article PMC9911311

Target: Adeno-associated virus type 2 (AAV2) capsid viral protein VP3 (adeno-associated virus type 2)
Experiment: cryo-EM structure

Adeno-associated virus type 2 (AAV2) capsid viral protein VP3 (natural protein)
stoichiometry N: 60
